From a protein production outcome set (Wang et al. 2014)

Assay: label from the status in PepcDB records

Question: For “MRKVLVTVLLVLTVLSLFSAVKIAVILPMTGGISAFGRMVWEGIQIAHEEKPTVLGEEVELVLLDTRSEKTEAANAAARAIDKEKVLAIIGEVASAHSLAIAPIAEENKVPMVTPASTNPLVTQGRKFVSRVCFIDPFQGAAMAVFAYKNLGAKRVVVFTDVEQDYSVGLSNFFINKFTELGGQVKRVFFRSGDQDFSAQLSVAMSFNPDAIYITGYYPEIALISRQARQLGFTGYILAGDGADAPELIEIGGEAVEGLLFTTHYHPKAASNPVAKKFVEVYKEKYGKEPAALNALGYDAYMVLLDAIERAGSFDREKIAEEIRKTRNFNGASGIINIDENGDAIKSVVVNIVKNGSVDFEAVINPDDLK”, which protein production is on record?
Answer: not failed

Question: For “MREESIGRIAKDFLGHEGFQLTEWGGGNLNYLYRVDSTKESYILKYAPPYIRCLGEGYPLSSERLRYEILGLKAANETIPEFAPKLFYVAKEGVVMEYLEGFKLLRQAFIQGEKIPHLAEHLAEMLARFLVKNSFWALNEGERKKLLEQSENSLMRRLSEDYIFTFPFMEHPTNQKNPTSAPSVREIHQDKEWLGAILWLKSRFSTAKEGLLHGDLHTGSLMIKGEQIKMIDFEFSFVGPLSFDLGAILANWLIAYRTHKERGEVGGYSQWLREEMEEFIERFKEQFEFWAGEHGAPQIGIKGYLEALLIEAWGMAGVKIARRILGAAGVEDITSLESPLKEEVERRLLVLSREMTLRAALGIIPIQKGGREAYSWLF”, which protein production is on record?
Answer: failed

Question: For “MQFGVTKESQCHYLTDQEERLVVALPNDLENLNADAYQQLMQYGFRRSHNDVYRPHCRLCSACQSLRVVVPEFRFSKNQKRILKKNDDLTLQIKQQPEAEYSQLFSQFIEQRHADGEMYPPDPDKFWKWIDCDWLTPELLEWRNASNELMIVSVVDRTVDAMSAVYTFFHPDEEKRSPGTFAVLEMIRLAQEREVARLYLGYQIDDCKKMNYKTRFAPYERLVGNHWKKELKSHTLKAQNKD”, which protein production is on record?
Answer: failed

Question: Which protein production does the source give for “MKCIPYSVLLKDLEMRNLRELEDLIIEAVYTDIIQGKLDQRNQLLEVDFCIGRDIRKKDINNIVKTLHEWCDGCEAVLLGIEQQVLRANQYKENHNRTQQQVEAEVTNIKKTLKATASSSAQEMEQQLAERECPPHAEQRQPTKKMSKVKGLVSSRH” here?
Answer: not failed

Question: For “MRAERGPPKQTISLPVALRKDRDMSEIAPQNRRIRPAAIVVLFLTIALTGCLLALGTWQVQRLFWKLDLIERVDVRAHAEPVDAPAASDWPALGNPSDYEYRRVKLTGTLLNDREVQVYTVTDLGPGYWVMTPLRRDDGSSIIVNRGFVPSDRRDPSSRTGGEPTGNVEIVGLMRAPETGGLFLRTNDPANGRWYSRNIPQITQASGLSDVAPFYVDADATPNPGGLPVGGKTMLTFPNNHLSYAVTWYILAAMVVAAGWYVLRNLNAPKSKRDAD”, which protein production is on record?
Answer: failed

Question: For “MYIKKIVIGLLFVTLVGCSSSPDTEETKEKILIKTNNYSDLIIFYKNQLKVSEDPYTREKLAQAYLDSGDPDSALFAIQYLNEDDDSRSISSFLIEANAQLECGMLEPALDTVNRVYKLNEDNPEIENLLGVIYASKRDLDKSRHYFNLARKHLYSDITIKNNLAILNIIEGKYDQAVKLLLPIYMSNKNDALVQANLMLAMAKAGDLEFMEKVLSPQFSKQEIERRYSILKNTESHRDDTNLFGAD”, which protein production is on record?
Answer: failed

Question: For “MSLEKQKGLAIITGASQGIGAVIAAGLATDGYRVVLIARSKQNLEKVHDEIMRSNKHVQEPIVLPLDITDCTKADTEIKDIHQKYGAVDILVNAAAMFMDGSLSEPVDNFRKIMEINVIAQYGILKTVTEIMKVQKNGYIFNVASRAAKYGFADGGIYGSTKFALLGLAESLYRELAPLGIRVTTLCPGWVNTDMAKKAGTPFKDEEMIQPDDLLNTIRCLLNLSENVCIKDIVFEMKKSIIEGHHHHHH”, which protein production is on record?
Answer: not failed

Question: With “MQKFIRDFTLPAAFAGFVTFLIGISVSSVLVIQAAQILGANTPQITSWFWALGIGIGLSGLILSWKFKYPVATSWSTAGLALIIATGSGYSLHEAIGAFLLCGLLTALLGFFGVFQKALAYIPQSLTSAMLAGVLLKFGIAIFGNMQDHWQFIISLLAVYIVSKRLWPRYCIVITVIAGVMICPFFMEFHLPTLHWELAKPEWITPHFTGSAILGLALPLFVINMASQYLPGIAMIKSYGYNPNVNQLIGWTGATQTLLAPFGCYTVNIAAISAAVSLDDQVHPDPAKRYIAGISCGFFYILMGLFAATLTSLLMSFPSLFIVALAGIALFGTISHNIAIAFQEPTDREAALLTFLCSASGIQFFGIGSAFWGLIVGVIVSMVLKTKFKKS” as the sequence, how does the protein production read?
Answer: failed

Question: With “LETYNTCDTPPPLNNLTPYRDDGKEALKFYTDPSYFFDLWKEKMLQDTKDIMKEKRKHRKEKKDNPNRGNVNPRKIKTRKEEWEKMKMGQEF” as the sequence, how does the protein production read?
Answer: failed

Question: Which protein production does the source give for “MFTFGFTNPEGTPDFSTPGLICIAILYIVGIYINFVFTIRRLHDRNNTGWLSLLMLVPVVNIGLAIYLFCAKGTEGPNDYGPKRPTPSWERVLGWIYIALIPLALIFGVIAVIMAPTYEGYVEKSESIVIGSPSQSE” here?
Answer: failed

Question: With “MTRYALLVRGINVGGKNKVVMAELRQELTNLGLEKVESYINSGNIFFTSIDSKAQLVEKLETFFAVHYPFIQSFSLLSLEDFEAELENLPAWWSRDLARKDFLFYTEGLDVDQVIATVESLELKDEVLYFGKLGIF” as the sequence, how does the protein production read?
Answer: failed

Question: Which protein production does the source give for “MNKLKYYCLRYQPYLLGVAFFLAIFLVWAIGRAFGFASLHSLLAGIGVFLLLSAGYVLLLYRGVGQHHNLEGLLRDDADQAVLSAAPADREEVSLLRERLLQGIERLHSNKPRGTSNKDALYALPWYLVIGQPAAGKSTMILQSGLNFPYAEREGVRVAGLGGTRNCDWFFSSEAVLLDTAGRYMNSPEEAGKWRGFLQLLRQHRQRRPLNGLIVSVSIADILHGSVEDQERVAKRLRERIQESCALLEVRLPIYLVFTKCDLIPGFTAFYRQLDDAARGEVMGKTFSHKGYEQADWGQRFSNAMDELTRYWGQMASQQLVQQDIQVTRRNDAAYRFPLELAALKPRLHQFVDSLLRANPYQNAEMLRGFYFTAALQADEAQWGCHGQHVAERFALEHAEGTGTAGSQPAPLFINSLFRKVIIPDQHLVALYTSNHRERRRKAGWVGAAGLAALVLCSLWGWSYLNNRATLASIADELAQAKADDQAASGQYTAWRSLDRLRFWAAHYHEQHHAKGVPLGMRLGLYQGHEVEPLLRDRYFATLQNVMLKPTADNLTRTLYLLTTLKVYQRNTRELQPVSGIDSVEAEALPHDNRAQSIANFGKAALDTYVMLSPGQREHADPAFLKAHLPDYWYPAIARQTGKSMAAAGSEAGGNQDYLYASRQITFYSDQIREPDVPRILDNAFLMSSSRNYIDSLRAQSLRAIETITLESDTLFAFGRADFQSLKNEGQHQLSAIASKLLNTPNIGKIIISGHADQLGDSQGNLQVSKQRAQTIRTYLVGKGVPAELVVAQGEGSRKPLVNCDMQQPRTQLIKCLEPNRRVEIEVRGLN” here?
Answer: failed

Question: For “MKNMDEERKYGLYSLIIGLLCVIGIVMLNGLICYVLYIIAVPSLLYGIGAFIIPKTRRKDAGKLPFRGY”, which protein production is on record?
Answer: failed

Question: For “MPSSGQLYGDEERELTPTPAIPEEGVYEVKYSNRRTNVVRLLPNGFQERKLRRLANLSAKLFNEVNFERRQQFFHEGKVNIEETYKKYYEKYKVILGVNAQAVLNKNNEAWSSFFSLLKLKKEGKLPPHMNHVSPPGYWKDREAGKRKQILVIRQDRYKVDAENHKLILKDFDMEIDFIGRLKWYGKQGRLEIIFDETRNAWYAHIPIEVGVEETKAGKKSKHVVKGERKSIQISKPKGNKVASIDLGINVIASVVVNDGTWLLYKGVRTKEDYFYFQKRIAEVQSLADRTRNIGEYDAYLELLREKRRLFKKLTRRLTHLYRNLASHLIETLYELGVSTIYLGYPFNIVQEKGNKFTVNMWSYRKLMESIELKAQEYGMKVFEVVEYNTSKYCAYHDVEVKRNPRGVINCPLGHKLHSDLNGALNILKKALGVIVNAVKKPLSFIVDHNRVAPIKGCNPLEHHHHHH”, which protein production is on record?
Answer: failed

Question: Which protein production does the source give for “MHTFKIDCQLHYRVIQMTEFVFQFEVAEHPWQTLIHESFQFKPDLAFEQYERDAGLNRLIRVNAPEGDLSVSYTAKVQTHIPERNTSLKECEIKDLPSDTLFYLAPSRFCESDLIDTMVTNTFAELPKGYSRVQAICDWIHDNIIYQSGSSDSTTTARDILVNRAGVCRDFAHLGIAICRALNIPARFVFGYMPFYQAQPDFHAIFEVYLENQWMLFDATRMGPIDQFVRVGTGLDAKDVPFATVYGEIELISMSPVIELV” here?
Answer: failed
